Results published in paper PMC3664799 (Nucleic Acids Research, 2013).

B1: DnaC6-DnaI6 complex (co-purified DnaC helicase and DnaI loader) (complex, Bacillus subtilis)
chain 1: MTDLLNDRLPPQNIEAEQAVLGAIFLQPSALTLASEVLIPDDFYRMSHQKIYNAMLVLGDRGEPVDLVTVTSELANTDLLEEVGGISYLTDIANSVPTAANIEYYAKIVEEKSILRRLIRTATTIAQDGYTREDEVEDLLSEAEKTIMEVAQRKNTSAFQNIKDVLVQTYDNIEQLHNRKGDITGIPTGFTELDRMTAGFQRNDLIIVAARPSVGKTAFALNIAQNVATKTDESVAIFSLEMGAEQLVMRMLCAEGNINAQNLRTGNLTEEDWGKLTMAMGSLSNSGIYIDDTPGIRVSEIRAKCRRLKQESGLGMILIDYLQLIQGSGRSKDNRQQEVSEISRELKSIARELQVPVIALSQLSRGVEQRQDKRPMMSDIRESGSIEQDADIVAFLYRDDYYDKETENKNIIEIIIAKQRNGPVGTVSLAFVKEYNKFVNLERRFDDAGVPPGA
chain 2: MEPIGRSLQGVTGRPDFQKRLEQMKEKVMKDQDVQAFLKENEEVIDQKMIEKSLNKLYEYIEQSKNCSYCSEDENCNNLLEGYHPKLVVNGRSIDIEYYECPVKRKLDQQKKQQSLMKSMYIQQDLLGATFQQVDISDPSRLAMFQHVTDFLKSYNETGKGKGLYLYGKFGVGKTFMLAAIANELAEKEYSSMIVYVPEFVRELKNSLQDQTLEEKLNMVKTTPVLMLDDIGAESMTSWVRDEVIGTVLQHRMSQQLPTFFSSNFSPDELKHHFTYSQRGEKEEVKAARLMERILYLAAPIRLDGENRRHP
B2: DnaG primase (Bacillus subtilis) (enzyme, UniProt P05096 1-603, looked up)
chain: MGNRIPDEIVDQVQKSADIVEVIGDYVQLKKQGRNYFGLCPFHGESTPSFSVSPDKQIFHCFGCGAGGNVFSFLRQMEGYSFAESVSHLADKYQIDFPDDITVHSGARPESSGEQKMAEAHELLKKFYHHLLINTKEGQEALDYLLSRGFTKELINEFQIGYALDSWDFITKFLVKRGFSEAQMEKAGLLIRREDGSGYFDRFRNRVMFPIHDHHGAVVAFSGRALGSQQPKYMNSPETPLFHKSKLLYNFYKARLHIRKQERAVLFEGFADVISAVSSDVKESIATMGTSLTDDHVKILRRNVEEIILCYDSDKAGYEATLKASELLQKKGCKVRVAMIPDGLDPDDYIKKFGGEKFKNDIIDASVTVMAFKMQYFRKGKNLSDEGDRLAYIKDVLKEISTLSGSLEQEVYVKQLASEFSLSQESLTEQLSVFSKQNKPADNSGETKTRRAHLTTKARQKRLRPAYENAERLLLAHMLRDRSVIKKVIDRVGFQFNIDEHRALAAYLYAFYEEGAELTPQHLMARVTDDHISQLLSDILMLQVNQELSEAELSDYVKKVLNQRNWSMIKEKEAERAEAERQKDFLRAASLAQEIVTLNRSLK

How the values were obtained:
[1] = target: T1, DnaEBs DNA polymerase (Bacillus subtilis DnaE) (Bacillus subtilis, UniProt O34623 1-1115); assay: SEC
T1 sequence (looked up): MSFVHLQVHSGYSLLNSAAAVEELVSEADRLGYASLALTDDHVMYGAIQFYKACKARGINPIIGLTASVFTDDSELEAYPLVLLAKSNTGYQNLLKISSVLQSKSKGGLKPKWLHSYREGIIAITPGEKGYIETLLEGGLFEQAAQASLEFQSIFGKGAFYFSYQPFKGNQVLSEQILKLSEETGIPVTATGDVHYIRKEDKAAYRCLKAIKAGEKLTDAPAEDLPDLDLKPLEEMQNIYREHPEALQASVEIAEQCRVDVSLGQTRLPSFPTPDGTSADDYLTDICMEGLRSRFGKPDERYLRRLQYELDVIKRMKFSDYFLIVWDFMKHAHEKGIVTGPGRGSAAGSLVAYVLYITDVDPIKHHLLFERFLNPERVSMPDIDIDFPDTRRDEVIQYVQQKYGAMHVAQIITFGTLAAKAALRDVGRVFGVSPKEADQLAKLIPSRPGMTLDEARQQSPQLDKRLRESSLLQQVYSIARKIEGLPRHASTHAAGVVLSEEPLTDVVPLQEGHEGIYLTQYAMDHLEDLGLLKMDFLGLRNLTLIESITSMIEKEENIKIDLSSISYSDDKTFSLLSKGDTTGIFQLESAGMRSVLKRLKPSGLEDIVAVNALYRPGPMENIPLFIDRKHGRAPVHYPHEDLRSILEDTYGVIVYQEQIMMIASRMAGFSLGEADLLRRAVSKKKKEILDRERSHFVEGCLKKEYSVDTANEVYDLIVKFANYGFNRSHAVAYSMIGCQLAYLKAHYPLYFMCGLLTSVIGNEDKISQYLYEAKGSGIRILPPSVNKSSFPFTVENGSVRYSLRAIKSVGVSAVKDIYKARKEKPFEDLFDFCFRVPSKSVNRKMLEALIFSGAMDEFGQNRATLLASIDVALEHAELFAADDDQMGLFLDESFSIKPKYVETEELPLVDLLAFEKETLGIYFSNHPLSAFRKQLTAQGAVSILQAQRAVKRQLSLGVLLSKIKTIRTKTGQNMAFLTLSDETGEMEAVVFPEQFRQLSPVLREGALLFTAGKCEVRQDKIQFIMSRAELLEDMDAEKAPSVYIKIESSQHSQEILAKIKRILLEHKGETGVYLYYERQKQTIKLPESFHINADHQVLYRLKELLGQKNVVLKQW

[2] = target: B1; assay: SPR
[3] = target: T1, DnaEBs DNA polymerase (Bacillus …); assay: SPR

| binding result [1] | Ka [2] | Kd [2] | koff [2] | kon [2] | Ka [3] | Kd [3] | koff [3] | kon [3] | Binder |
| --- | --- | --- | --- | --- | --- | --- | --- | --- | --- |
| binds |  |  |  |  |  |  |  |  | B1 |
|  | 3.77e+06 M⁻¹ | 295 nM | 0.000287 s⁻¹ | 1080 M⁻¹ s⁻¹ | 1.33e+08 M⁻¹ | 752 nM | 0.00181 s⁻¹ | 2400 M⁻¹ s⁻¹ | B2 |
